From paper PMC6342527

How the values were obtained:
Experiment in all cases: cryo-EM structure; single-particle cryo-EM of SEC-purified channel in 20 mM Tris pH 7.5, 50 mM NaCl, 1 mM DDM, 0.1 mM CHS; 1 uM CaCl2 added (Ca2+-bound); homopentamer
[1] = target: chicken BEST1, residues 1-345 (BEST1_(345)) (chicken)
[2] = target: chicken BEST1, residues 1-405 (BEST1_(405)) (chicken)
[3] = target: chicken BEST1, residues 1-345, W287F mutant (BEST1_(345) W287F) (chicken)

Substance: chicken BEST1, residues 1-345 (BEST1_(345)) (domain or fragment)
- stoichiometry N [1]: 5

Substance: chicken BEST1, residues 1-405 (BEST1_(405)) (domain or fragment)
- stoichiometry N [2]: 5

Substance: chicken BEST1, residues 1-345, W287F mutant (BEST1_(345) W287F) (domain or fragment)
- stoichiometry N [3]: 5
